± gives the standard deviation of the averaged measurements.

The text below walks through data of the supplement of paper PMC12783771.

B1: library; numbered along this chain (parent)
chain: MNIQIGELAKRTACPVVTIRFYEQEGLLPPPGRSRGNFRLYGEEHVERLQFIRHCRSLDMPLSDVRTLLSYRKRPDQDCGEVNMLLDEHIRQVESRIGALLELKHHLVELREACSGARPAQSCGILQGLSDCVCDTRGTTAHPSD

In data set [1] the parent is B1. Description: sfGFP reporter fluorescence (15 h) (µM FITC); higher = higher leak. The following applies: library round: Round 0; ligand: none. The gist of the method:
(§1)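 Linear PbrR templates were made by PCR, normalized to 5 nM with an Echo, and expressed in BL21 Star (DE3) PANOx-SP extract with the pPbrR-sfGFP reporter plasmid and 30 μg/mL GamS. Echo-assembled 1 μL reactions held 1 µM lead chloride, 30 µM zinc acetate or no metal and were incubated 15 hr at 30 °C. Endpoint sfGFP fluorescence was read on a Synergy Neo2 and expressed as µM FITC using standard curves. Up to three biological replicates were run.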

Data set [2] covers variants of B1. Briefly: sfGFP reporter fluorescence (15 h) (µM FITC); higher = stronger transcriptional activation. Particulars: library round: Round 0. The method in brief: as §1

Take M60L D64K L107C G128M: the sfGFP reporter fluorescence in data set [1] is 5.61 ± 0.24; in data set [2] (ligand: 1 µM Pb), 4.82 ± 0.34; in data set [2] (ligand: 30 µM Zn), 4.67 ± 0.83.

As for M60L D64K L107C G128I, the sfGFP reporter fluorescence in data set [1] turned out to be 5.03 ± 0.22; in data set [2] (ligand: 1 µM Pb), 4.57 ± 0.23; in data set [2] (ligand: 30 µM Zn), 3.85 ± 0.9.

In the case of H54A, the sfGFP reporter fluorescence in data set [1] was 0.05626 ± 0.00026; in data set [2] (ligand: 1 µM Pb), 0.0552 ± 0.0029; in data set [2] (ligand: 30 µM Zn), 0.07074 ± 0.00052.

Turning to E44A, the results for the sfGFP reporter fluorescence in data set [1], in data set [2] (ligand: 1 µM Pb) and in data set [2] (ligand: 30 µM Zn) were 0.0612 ± 0.0015, 0.0746 ± 0.0013 and 0.495 ± 0.044, respectively.

For M60L P61N D64K K104V G128I, the figures for the sfGFP reporter fluorescence in data set [1], in data set [2] (ligand: 1 µM Pb) and in data set [2] (ligand: 30 µM Zn) were 0.345 ± 0.029, 0.915 ± 0.075 and 2.39 ± 0.063, respectively.

As for M60L D64K K104V, the values for the sfGFP reporter fluorescence in data set [1], in data set [2] (ligand: 1 µM Pb) and in data set [2] (ligand: 30 µM Zn) were 2.02 ± 0.17, 4.2 ± 0.4 and 4.63 ± 0.11, respectively.

Regarding M60L D64K K104V L107C, the results for the sfGFP reporter fluorescence in data set [1], in data set [2] (ligand: 1 µM Pb) and in data set [2] (ligand: 30 µM Zn) were 3.73 ± 0.15, 4.15 ± 0.39 and 3.44 ± 0.57, respectively.

As for M60L G128I, the sfGFP reporter fluorescence was found to be 0.336 ± 0.012 in data set [1], 1.4 ± 0.016 in data set [2] (ligand: 1 µM Pb) and 3.625 ± 0.027 in data set [2] (ligand: 30 µM Zn).

For the variant M60L G128M, the figures for the sfGFP reporter fluorescence in data set [1], in data set [2] (ligand: 1 µM Pb) and in data set [2] (ligand: 30 µM Zn) were 0.939 ± 0.012, 2.69 ± 0.78 and 4.69 ± 0.071, respectively.

Regarding M60L L107C G128I, the sfGFP reporter fluorescence in data set [1] came out at 2.19 ± 0.17; in data set [2] (ligand: 1 µM Pb), 3.42 ± 0.14; in data set [2] (ligand: 30 µM Zn), 2.98 ± 0.17.

As to M60L L107C G128M, the sfGFP reporter fluorescence in data set [1] is 4.479 ± 0.028; in data set [2] (ligand: 1 µM Pb), 4.98 ± 0.62; in data set [2] (ligand: 30 µM Zn) it was 5.22 ± 0.29.

With C55Y, the sfGFP reporter fluorescence is 0.0601 ± 0.0021 in data set [1], 0.0623 ± 0.001 in data set [2] (ligand: 1 µM Pb) and 0.06011 ± 0.00052 in data set [2] (ligand: 30 µM Zn).

Turning to C55W, the sfGFP reporter fluorescence came out at 0.0731 ± 0.0029 in data set [1], 0.0935 ± 0.0015 in data set [2] (ligand: 1 µM Pb) and 0.136 ± 0.0083 in data set [2] (ligand: 30 µM Zn).

As for C55I, the sfGFP reporter fluorescence in data set [1] is 0.0583 ± 0.0026; in data set [2] (ligand: 1 µM Pb), 0.0616; in data set [2] (ligand: 30 µM Zn), 0.112 ± 0.0057.

In the case of C55T, the sfGFP reporter fluorescence in data set [1] worked out at 0.0577 ± 0.00078; in data set [2] (ligand: 1 µM Pb), 0.0594 ± 0.0042; in data set [2] (ligand: 30 µM Zn), 0.129 ± 0.0018.

Consider C55N, for which the sfGFP reporter fluorescence stood at 0.0594 ± 0.0015 in data set [1], 0.0583 ± 0.0015 in data set [2] (ligand: 1 µM Pb) and 0.057 ± 0.0034 in data set [2] (ligand: 30 µM Zn).

Consider C55P, for which the sfGFP reporter fluorescence came to 0.0596 ± 0.00078 in data set [1], 0.0597 in data set [2] (ligand: 1 µM Pb) and 0.05846 ± 0.00026 in data set [2] (ligand: 30 µM Zn).

Take C55K: the sfGFP reporter fluorescence came out at 0.0608 ± 0.0015 in data set [1], 0.061 ± 0.0018 in data set [2] (ligand: 1 µM Pb) and 0.0607 ± 0.00078 in data set [2] (ligand: 30 µM Zn).

C55Q: the sfGFP reporter fluorescence in data set [1] came to 0.0594 ± 0.001; in data set [2] (ligand: 1 µM Pb) it was 0.0588 ± 0.0013; in data set [2] (ligand: 30 µM Zn) it was 0.0585 ± 0.00078.

On to C55E, for which the sfGFP reporter fluorescence in data set [1] was 0.061 ± 0.0013; in data set [2] (ligand: 1 µM Pb), 0.06029 ± 0.00026; in data set [2] (ligand: 30 µM Zn), 0.0607 ± 0.0013.

For C55G, the sfGFP reporter fluorescence in data set [1] was found to be 0.0568 ± 0.0015; in data set [2] (ligand: 1 µM Pb) it was 0.057 ± 0.00078; in data set [2] (ligand: 30 µM Zn) it was 0.07 ± 0.0015.

For C55S, the sfGFP reporter fluorescence in data set [1] stood at 0.06029 ± 0.00026; in data set [2] (ligand: 1 µM Pb), 0.066 ± 0.001; in data set [2] (ligand: 30 µM Zn), 0.203 ± 0.019.

With C55V, the values for the sfGFP reporter fluorescence in data set [1], in data set [2] (ligand: 1 µM Pb) and in data set [2] (ligand: 30 µM Zn) were 0.0629 ± 0.0029, 0.0773 ± 0.0047 and 0.273 ± 0.0029, respectively.

C55F: the sfGFP reporter fluorescence in data set [1] turned out to be 0.0634 ± 0.001; in data set [2] (ligand: 1 µM Pb), 0.0674 ± 0.001; in data set [2] (ligand: 30 µM Zn) it was 0.0876.

Consider C55L, for which the figures for the sfGFP reporter fluorescence in data set [1], in data set [2] (ligand: 1 µM Pb) and in data set [2] (ligand: 30 µM Zn) were 0.0608 ± 0.001, 0.0702 ± 0.0013 and 0.173 ± 0.0091, respectively.

C55R: the sfGFP reporter fluorescence in data set [1] stood at 0.0596 ± 0.0018; in data set [2] (ligand: 1 µM Pb) it was 0.0592 ± 0.0013; in data set [2] (ligand: 30 µM Zn), 0.0572.

On to C55D, for which the sfGFP reporter fluorescence in data set [1] is 0.0608 ± 0.0021; in data set [2] (ligand: 1 µM Pb), 0.061 ± 0.0018; in data set [2] (ligand: 30 µM Zn), 0.0592 ± 0.00078.

As to C55A, the sfGFP reporter fluorescence in data set [1] came out at 0.0647 ± 0.0013; in data set [2] (ligand: 1 µM Pb), 0.126 ± 0.013; in data set [2] (ligand: 30 µM Zn) it was 1.28 ± 0.066.

In the case of C55H, the sfGFP reporter fluorescence in data set [1] was found to be 0.0585 ± 0.00078; in data set [2] (ligand: 1 µM Pb), 0.06139 ± 0.00026; in data set [2] (ligand: 30 µM Zn), 0.0574 ± 0.00078.

Take C55M: the sfGFP reporter fluorescence in data set [1] was 0.0645 ± 0.0015; in data set [2] (ligand: 1 µM Pb), 0.0733 ± 0.0026; in data set [2] (ligand: 30 µM Zn), 0.139 ± 0.018.

On to Q50A, for which the figures for the sfGFP reporter fluorescence in data set [1], in data set [2] (ligand: 1 µM Pb) and in data set [2] (ligand: 30 µM Zn) were 0.06615 ± 0.00026, 0.0891 and 0.743 ± 0.019, respectively.

M60L K104V L107C G128I: the sfGFP reporter fluorescence in data set [1] was 1.223 ± 0.006; in data set [2] (ligand: 1 µM Pb) it was 3.59 ± 0.22; in data set [2] (ligand: 30 µM Zn) it was 3.12 ± 0.6.

Turning to M60L K104V L107C G128M, the sfGFP reporter fluorescence in data set [1] is 2.296 ± 0.0044; in data set [2] (ligand: 1 µM Pb), 4.53 ± 0.18; in data set [2] (ligand: 30 µM Zn), 3.641 ± 0.033.

Turning to M60L P61N K104V, the sfGFP reporter fluorescence in data set [1] turned out to be 0.153 ± 0.0062; in data set [2] (ligand: 1 µM Pb), 0.413 ± 0.017; in data set [2] (ligand: 30 µM Zn) it was 1.56 ± 0.039.

With Y41W, the sfGFP reporter fluorescence in data set [1] turned out to be 0.0586; in data set [2] (ligand: 1 µM Pb), 0.0658 ± 0.0029; in data set [2] (ligand: 30 µM Zn), 0.1977 ± 0.00078.

In the case of Y41Q, the sfGFP reporter fluorescence in data set [1] came to 0.0581 ± 0.0023; in data set [2] (ligand: 1 µM Pb), 0.0597; in data set [2] (ligand: 30 µM Zn), 0.0574 ± 0.0054.

Consider Y41L, for which the sfGFP reporter fluorescence stood at 0.0597 in data set [1], 0.0596 ± 0.0029 in data set [2] (ligand: 1 µM Pb) and 0.0729 ± 0.0083 in data set [2] (ligand: 30 µM Zn).

Take Y41M: the results for the sfGFP reporter fluorescence in data set [1], in data set [2] (ligand: 1 µM Pb) and in data set [2] (ligand: 30 µM Zn) were 0.0629 ± 0.00078, 0.0596 ± 0.0023 and 0.113 ± 0.0078, respectively.

As for Y41C, the results for the sfGFP reporter fluorescence in data set [1], in data set [2] (ligand: 1 µM Pb) and in data set [2] (ligand: 30 µM Zn) were 0.0618 ± 0.0018, 0.0592 ± 0.00078 and 0.0654 ± 0.0018, respectively.

On to Y41E, for which the sfGFP reporter fluorescence in data set [1] stood at 0.0607 ± 0.00078; in data set [2] (ligand: 1 µM Pb), 0.0625 ± 0.00078; in data set [2] (ligand: 30 µM Zn) it was 0.0619 ± 0.0015.

Take Y41R: the sfGFP reporter fluorescence in data set [1] was 0.0618 ± 0.0013; in data set [2] (ligand: 1 µM Pb), 0.0623 ± 0.001; in data set [2] (ligand: 30 µM Zn), 0.0643 ± 0.0013.

For the variant Y41P, the results for the sfGFP reporter fluorescence in data set [1], in data set [2] (ligand: 1 µM Pb) and in data set [2] (ligand: 30 µM Zn) were 0.0583 ± 0.001, 0.0597 ± 0.001 and 0.0601 ± 0.0026, respectively.

Y41S: the results for the sfGFP reporter fluorescence in data set [1], in data set [2] (ligand: 1 µM Pb) and in data set [2] (ligand: 30 µM Zn) were 0.0603 ± 0.00078, 0.0612 ± 0.0021 and 0.0616 ± 0.0015, respectively.

Regarding Y41N, the sfGFP reporter fluorescence in data set [1] came to 0.0594 ± 0.0031; in data set [2] (ligand: 1 µM Pb), 0.0601; in data set [2] (ligand: 30 µM Zn) it was 0.0597 ± 0.0015.
